Results: the Immune Epitope Database (IEDB)
pIC50, pKd: −log10 of the molar value.

Tests used:
HLA-B*51:01 = assay: IEDB peptide-MHC binding, purified MHC/competitive/fluorescence; filed as Kd, often an IC50 or EC50 that approximates it; ≥ and ≤ were set here for values at or beyond the usual limits of such assays
HLA-B*15:17 = assay: as above
HLA-B*27:03 = assay: as above
HLA-A*26:01 = assay: as above
HLA-B*07:02 = assay: IEDB peptide-MHC binding, purified MHC/direct/fluorescence; filed as Kd, often an IC50 or EC50 that approximates it; ≥ and ≤ were set here for values at or beyond the usual limits of such assays; details: source organism: Ebola virus - Gabon (1994-1997)
HLA-A*69:01 = assay: as above; details: source organism: Ebola virus - Gabon (1994-1997)
HLA-B*39:01 [1] = assay: as above; details: source organism: Ebola virus - Gabon (1994-1997)
HLA-A*23:01 [2] = assay: as above; details: source organism: Zaire ebolavirus
HLA-A*03:01 [3] = assay: as above; details: source organism: Ebola virus - Gabon (1994-1997)
HLA-B*27:05 = assay: as above; details: source organism: Ebola virus - Gabon (1994-1997)
HLA-A*11:01 [4] = assay: as above; details: source organism: Ebola virus - Gabon (1994-1997)
HLA-B*46:01 [5] = assay: as above; details: source organism: Ebola virus - Gabon (1994-1997)
HLA-A*24:03 [6] = assay: as above; details: source organism: Zaire ebolavirus
HLA-B*44:02 = assay: as above; details: source organism: Ebola virus - Gabon (1994-1997)
HLA-A*29:02 [7] = assay: as above; details: source organism: Ebola virus - Gabon (1994-1997)
HLA-A*68:02 [8] = assay: as above; details: source organism: Zaire ebolavirus
HLA-B*18:01 [9] = assay: as above; details: source organism: Ebola virus - Gabon (1994-1997)
HLA-B*15:01 [10] = assay: as above; details: source organism: Ebola virus - Gabon (1994-1997)
HLA-A*02:01 [11] = assay: as above; details: source organism: Ebola virus - Gabon (1994-1997)
HLA-B*40:01 = assay: as above; details: source organism: Ebola virus - Gabon (1994-1997)
HLA-A*01:01 [12] = assay: as above; details: source organism: Ebola virus - Gabon (1994-1997)
HLA-A*02:12 [13] = assay: as above; details: source organism: Zaire ebolavirus
HLA-B*58:01 [14] = assay: as above; details: source organism: Ebola virus - Gabon (1994-1997)
HLA-B*57:01 [15] = assay: as above; details: source organism: Ebola virus - Gabon (1994-1997)
HLA-B*39:01 [16] = assay: IEDB peptide-MHC binding, purified MHC/competitive/fluorescence; filed as Kd, often an IC50 or EC50 that approximates it; ≥ and ≤ were set here for values at or beyond the usual limits of such assays
HLA-A*23:01 [17] = assay: as above
HLA-A*02:19 = assay: as above
HLA-A*03:01 [18] = assay: as above
HLA-B*46:01 [19] = assay: as above
HLA-A*24:03 [20] = assay: as above
HLA-A*29:02 [21] = assay: as above
HLA-B*18:01 [22] = assay: as above
HLA-B*15:01 [23] = assay: as above
HLA-A*02:01 [24] = assay: as above
HLA-B*57:01 [25] = assay: as above
HLA-B*58:01 [26] = assay: IEDB peptide-MHC binding, purified MHC/competitive/radioactivity; filed as Kd, often an IC50 or EC50 that approximates it; ≥ and ≤ were set here for values at or beyond the usual limits of such assays
HLA-B*57:01 [27] = assay: as above
HLA-B*53:01 = assay: as above; details: source organism: Dengue virus 4 Philippines/H241/1956
HLA-A*32:01 = assay: as above
HLA-A*02:12 [28] = assay: IEDB peptide-MHC binding, purified MHC/competitive/fluorescence; filed as Kd, often an IC50 or EC50 that approximates it; ≥ and ≤ were set here for values at or beyond the usual limits of such assays; details: source organism: Listeria welshimeri serovar 6b str. SLCC5334
HLA-A*68:02 [29] = assay: IEDB peptide-MHC binding, purified MHC/competitive/radioactivity; filed as Kd, often an IC50 or EC50 that approximates it; ≥ and ≤ were set here for values at or beyond the usual limits of such assays; details: source organism: Dengue virus 4 Philippines/H241/1956
HLA-A*02:01 [30] = assay: IEDB peptide-MHC binding, purified MHC/competitive/fluorescence; ≥ and ≤ were set here for values at or beyond the usual limits of such assays; details: source organism: Sudan ebolavirus
HLA-A*01:01 [31] = assay: as above
HLA-A*11:01 [32] = assay: as above; details: source organism: Vaccinia virus
HLA-A*01:01 [33] = assay: IEDB peptide-MHC binding, purified MHC/competitive/radioactivity; filed as Kd, often an IC50 or EC50 that approximates it; ≥ and ≤ were set here for values at or beyond the usual limits of such assays; details: source organism: Dengue virus 2 Jamaica/1409/1983
[34] = source organism: Zaire ebolavirus
[35] = source organism: Shigella boydii CDC 3083-94
[36] = source organism: Dengue virus 2 Jamaica/1409/1983
[37] = source organism: Dengue virus 4 Philippines/H241/1956
[38] = source organism: Listeria welshimeri serovar 6b str. SLCC5334
[39] = source organism: Dengue virus 3 Martinique/1243/1999

In the case of AKATGRYNL, the pKd (HLA-B*51:01; [34]) was no more than 4.70, the pKd (HLA-B*15:17; [34]) was no more than 4.70 and the pKd (HLA-B*27:03; [34]) was no more than 4.70. It also gave a pKd (HLA-A*26:01; [34]) of no more than 4.70, a pKd (HLA-B*07:02) of no more than 4.70 and a pKd (HLA-A*69:01) of no more than 4.70. For the same sequence, the pKd (HLA-B*39:01 [1]) was 6.11, the pKd (HLA-A*23:01 [2]) was no more than 4.70 and the pKd (HLA-A*03:01 [3]) was no more than 4.70. It also gave a pKd (HLA-B*27:05) of no more than 4.70, a pKd (HLA-A*11:01 [4]) of no more than 4.70 and a pKd (HLA-B*46:01 [5]) of no more than 4.70. The pKd (HLA-A*24:03 [6]) was no more than 4.70, the pKd (HLA-B*44:02) was no more than 4.70 and the pKd (HLA-A*29:02 [7]) was no more than 4.70. It also gave a pKd (HLA-A*68:02 [8]) of no more than 4.70, a pKd (HLA-B*18:01 [9]) of no more than 4.70 and a pKd (HLA-B*15:01 [10]) of no more than 4.70. The pKd (HLA-A*02:01 [11]) was no more than 4.70, the pKd (HLA-B*40:01) was no more than 4.70 and the pKd (HLA-A*01:01 [12]) was no more than 4.70. For the same sequence, the pKd (HLA-A*02:12 [13]) was no more than 4.70, the pKd (HLA-B*58:01 [14]) was no more than 4.70 and the pKd (HLA-B*57:01 [15]) was no more than 4.70.

Work on MAMTGLPQA yielded a pKd (HLA-B*39:01 [16]; [35]) of no more than 4.70, a pKd (HLA-A*23:01 [17]; [35]) of no more than 4.70 and a pKd (HLA-A*02:19; [35]) of 9.52. The pKd (HLA-A*03:01 [18]; [35]) was no more than 4.70, the pKd (HLA-B*46:01 [19]; [35]) was no more than 4.70 and the pKd (HLA-A*24:03 [20]; [35]) was no more than 4.70. It also gave a pKd (HLA-A*29:02 [21]; [35]) of no more than 4.70, a pKd (HLA-B*15:17; [35]) of no more than 4.70 and a pKd (HLA-B*18:01 [22]; [35]) of no more than 4.70. It also gave a pKd (HLA-B*15:01 [23]; [35]) of no more than 4.70, a pKd (HLA-A*02:01 [24]; [35]) of 9.10 and a pKd (HLA-B*27:03; [35]) of no more than 4.70. The pKd (HLA-A*26:01; [35]) was no more than 4.70 and the pKd (HLA-B*57:01 [25]; [35]) was no more than 4.70.

Sequence TASGKLITEW has a pKd (HLA-B*58:01 [26]; [36]) of 6.79 and a pKd (HLA-B*57:01 [27]; [36]) of 7.30.

Work on MVMTTTANW yielded a pKd (HLA-B*53:01) of 8.46, a pKd (HLA-A*32:01; [37]) of 7.58 and a pKd (HLA-B*58:01 [26]; [37]) of 7.79. It also gave a pKd (HLA-B*57:01 [27]; [37]) of 7.96.

With ELYENKPDV the pKd (HLA-B*39:01 [16]; [38]) was no more than 4.70, the pKd (HLA-B*51:01; [38]) was no more than 4.70 and the pKd (HLA-A*23:01 [17]; [38]) was no more than 4.70. It also gave a pKd (HLA-A*02:19; [38]) of 6.52, a pKd (HLA-A*03:01 [18]; [38]) of no more than 4.70 and a pKd (HLA-B*46:01 [19]; [38]) of no more than 4.70. The pKd (HLA-A*24:03 [20]; [38]) was no more than 4.70, the pKd (HLA-A*29:02 [21]; [38]) was no more than 4.70 and the pKd (HLA-B*18:01 [22]; [38]) was no more than 4.70. It also gave a pKd (HLA-B*15:01 [23]; [38]) of no more than 4.70, a pKd (HLA-A*02:01 [24]; [38]) of 6.29 and a pKd (HLA-B*27:03; [38]) of no more than 4.70. The pKd (HLA-A*02:12 [28]) was no more than 4.70, the pKd (HLA-A*26:01; [38]) was no more than 4.70 and the pKd (HLA-B*57:01 [25]; [38]) was no more than 4.70.

LASMAICSAV showed a pKd (HLA-A*68:02 [29]) of 7.58, a pKd (HLA-B*58:01 [26]; [37]) of 6.23 and a pKd (HLA-B*57:01 [27]; [37]) of no more than 4.66.

Work on RVWIQENPW yielded a pKd (HLA-A*32:01; [36]) of 7.65, a pKd (HLA-B*58:01 [26]; [36]) of 8.47 and a pKd (HLA-B*57:01 [27]; [36]) of 8.10.

Work on VTEIDQLVC yielded a pIC50 (HLA-A*02:01 [30]) of no more than 3.49 and a pIC50 (HLA-A*01:01 [31]; source organism: Sudan ebolavirus) of 4.47.

GTEKEFLRY was tested, and the pIC50 (HLA-A*11:01 [32]) was 4.94 and the pIC50 (HLA-A*01:01 [31]; source organism: Vaccinia virus) was 5.18.

STSLSVSLVL was tested, and the pKd (HLA-A*01:01 [33]) was 4.92 and the pKd (HLA-B*57:01 [27]; [36]) was 6.18.

In the case of NSSFIIDGPN, the pKd (HLA-B*58:01 [26]; [39]) was 8.27 and the pKd (HLA-B*57:01 [27]; [39]) was 6.85.

Work on IGLSSRATW yielded a pKd (HLA-B*58:01 [26]; [37]) of 8.18 and a pKd (HLA-B*57:01 [27]; [37]) of 7.32.
